What all share (assay type): biochemical
In one data set the target is T1, FAP (Homo sapiens, UniProt Q12884).
T1 construct: the extracellular domain encoding the active enzyme can be shed from the cell surface; tissue Discovery Life Sciences, Inc. (part of the samples); host or cells: human serum (healthy donors, cirrhosis patients)
T1 sequence (Q12884 24-760 limits assumed): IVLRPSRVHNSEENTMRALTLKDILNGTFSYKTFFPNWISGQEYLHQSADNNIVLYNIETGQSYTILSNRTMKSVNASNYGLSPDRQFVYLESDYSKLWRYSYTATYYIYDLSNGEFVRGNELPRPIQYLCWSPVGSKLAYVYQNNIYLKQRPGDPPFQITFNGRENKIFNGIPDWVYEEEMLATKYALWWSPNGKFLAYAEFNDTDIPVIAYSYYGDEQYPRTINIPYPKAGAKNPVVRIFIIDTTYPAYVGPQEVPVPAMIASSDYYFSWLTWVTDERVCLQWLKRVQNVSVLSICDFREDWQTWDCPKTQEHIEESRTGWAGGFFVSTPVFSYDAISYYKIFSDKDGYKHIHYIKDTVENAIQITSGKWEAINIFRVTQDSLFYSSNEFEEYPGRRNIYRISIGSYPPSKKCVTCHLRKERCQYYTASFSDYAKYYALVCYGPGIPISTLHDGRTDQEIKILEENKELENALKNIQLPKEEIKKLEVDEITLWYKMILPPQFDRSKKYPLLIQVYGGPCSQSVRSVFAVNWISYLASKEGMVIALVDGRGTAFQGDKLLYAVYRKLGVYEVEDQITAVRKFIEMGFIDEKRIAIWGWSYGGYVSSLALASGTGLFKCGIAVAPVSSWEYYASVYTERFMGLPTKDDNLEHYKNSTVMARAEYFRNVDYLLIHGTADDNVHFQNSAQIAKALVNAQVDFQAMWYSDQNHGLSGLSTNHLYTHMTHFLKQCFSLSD
Put plainly: aP cleavage in anti-FAP or control IgG-immunodepleted human serum. Conditions: after FAP immunodepletion; serum diluted 2.5-fold. Here is the method: (§1) Mouse plasma samples were prepared in K3-EDTA MiniCollect tubes (Greiner Bio-One, 450475) and frozen immediately at −80° C. prior to analysis. Human serum samples were obtained from healthy donors or purchased from Discovery Life Sciences, Inc. (Los Osos, Calif.).
(§2) Peptides of the region flanking the C-terminal human FGF21 cleavage site (VGPSQG) or a variant with D-alanine at P2 (VaPSQG) were synthesized (Anaspec, Inc.), containing an amine-terminal donor (HyLite Fluor 488 or Cy5.5 for aP NIRF) and a dark quencher-acceptor (QXL 520 or QSY21 for aP NIRF) conjugated to a supplementary C-terminal lysine. ANPFAP (Bioconjugate Chem 23:1704-11) and aP NIRF were synthesized by CPC Scientific (Sunnyvale, Calif.). Assays were conducted at 37° C. in 50 mM HEPES (pH 7.2), 150 mM NaCl, 1 mM EDTA, 0.1 mg/ml BSA. The excitation/emission wavelengths of cleaved peptide are 490/520 nm or 675/695 nm for ANPFAP and aP NIRF. Fluorescence was monitored on a Tecan M1000 Pro plate reader in kinetic mode. Except where indicated otherwise, measurements of serum or plasma FAP activity were performed with the peptide substrate concentration at 6 μM and a 10-fold dilution of serum or plasma in assay buffer.

Data set [1] relates to human S9 and S28 peptidases. Put plainly: aP cleavage by a panel of recombinant human prolyl peptidases. Conditions: each recombinant peptidase at 2.5 μg/ml.
Excerpt: Human prolyl oligopeptidase (PREP, 4308-SE), DPPIV (1180-SE), DPP9 (5419-SE), and DPPII/DPP7 (3438-SE) proteins were purchased from R&D Systems. Human DPP8 (BML-SE527) protein was purchased from Enzo Life Sciences. N-terminal octa-His-tagged human and mouse FAP proteins containing the extracellular domain (residues L26-D760 and L26-D761, respectively) were purified from the conditioned media of transiently-transfected CHO cells, by immobilized metal affinity chromatography (IMAC), followed by size exclusion chromatography (SEC).
as §2, with “Except where indicated otherwise, measurements of serum or plasma FAP activity were performed with the peptide substrate concentration at 6 μM and a 10-fold dilution of serum or plasma in assay buffer.” left out

The next data set has as its target T2, serum FAP (Homo sapiens, UniProt Q12884).
T2 construct: the extracellular domain encoding the active enzyme can be shed from the cell surface; tissue Discovery Life Sciences, Inc. (part of the samples); host or cells: human serum (healthy donors, cirrhosis patients)
T2 sequence (Q12884 24-760 limits assumed): T1 sequence (Q12884 24-760 limits assumed)
Put plainly: aP probe fluorescence assay of FAP activity in human serum versus FAP ELISA. Here is the method: as §1
Serum FAP concentration was measured using the human FAP DuoSet ELISA kit (R&D Systems, DY3715), according to the manufacturer's protocol.
as §2
On the technique in general: An ELISA detects its analyte on a solid surface through an enzyme-linked reagent.

For the substance “aP probe: FGF21-based peptide VaPSQG (D-alanine at P2) with HyLite Fluor 488 donor and QXL 520 quencher”, the “cleavage signal in human serum” value in the data set with FAP is “signal is lost”. For the same substance, the “cleavage by human S9 and S28 peptidases” value in data set [1] is given as “did not exhibit an ability to cleave”. Further, the “lowest FAP level detected with the activity assay” value with serum FAP was 63 ng/mL.

Source of the values: patent publication US20200055896A1, “SUBSTRATES RECOGNIZED BY FIBROBLAST ACTIVATION PROTEIN (FAP) AND METHODS OF USING THE SAME” (GENENTECH, INC., priority 2017, published 2020).
